Drawing on PMC12533313 (2025), this text covers Kd for 1 molecule.

The experiment deals with α‐synuclein preformed fibrils (UniProt P37840 1-140). In words: SPR. A general note: SPR reads the build-up and loss of mass on a sensor chip optically.

B1: Recombinant mouse 24p3R protein (receptor)
chain: MPSARFGRRGIVLLTLGLVGPCGVGGAAAGSSTGIMALRFLLGFLLAGVDLGVYLMRLELCDPTQRLRVALAGELVGVGGHFLFLGLALVSKDWRFLQRMITAPCILFLFYGWPGLFLESARWLIVKRQIEEAQSVLRILAERNRPHGQMLGEEAQEALQELENTCPLPATSTFSFASLLNYRNIWKNLLILGFTNFIAHAIRHCYQPVGGGGSPSDFYLCSLLASGTAALACVFLGVTVDRFGRRGILLLSMTLTGIASLVLLGLWDYLNDAAITTFSVLGLFSSQASAILSTLLASEVIPTTVRGRGLGLIMALGALGGLSCPAQRLHMGHGAFLQHVVLAACALLCILSIMLLPETKRKLLPEVLRDGELCRRPSLLRQPPPNRCDHVPLLATPNPAL
In turn, B1 showed a Kd of 6.67 µM.

By Kd is commonly meant the constant that tells how readily two partners part at equilibrium.
